In one data set the target is T1, GST-MDA5ΔN (human, UniProt Q9BYX4 287-1025).
T1 sequence (looked up): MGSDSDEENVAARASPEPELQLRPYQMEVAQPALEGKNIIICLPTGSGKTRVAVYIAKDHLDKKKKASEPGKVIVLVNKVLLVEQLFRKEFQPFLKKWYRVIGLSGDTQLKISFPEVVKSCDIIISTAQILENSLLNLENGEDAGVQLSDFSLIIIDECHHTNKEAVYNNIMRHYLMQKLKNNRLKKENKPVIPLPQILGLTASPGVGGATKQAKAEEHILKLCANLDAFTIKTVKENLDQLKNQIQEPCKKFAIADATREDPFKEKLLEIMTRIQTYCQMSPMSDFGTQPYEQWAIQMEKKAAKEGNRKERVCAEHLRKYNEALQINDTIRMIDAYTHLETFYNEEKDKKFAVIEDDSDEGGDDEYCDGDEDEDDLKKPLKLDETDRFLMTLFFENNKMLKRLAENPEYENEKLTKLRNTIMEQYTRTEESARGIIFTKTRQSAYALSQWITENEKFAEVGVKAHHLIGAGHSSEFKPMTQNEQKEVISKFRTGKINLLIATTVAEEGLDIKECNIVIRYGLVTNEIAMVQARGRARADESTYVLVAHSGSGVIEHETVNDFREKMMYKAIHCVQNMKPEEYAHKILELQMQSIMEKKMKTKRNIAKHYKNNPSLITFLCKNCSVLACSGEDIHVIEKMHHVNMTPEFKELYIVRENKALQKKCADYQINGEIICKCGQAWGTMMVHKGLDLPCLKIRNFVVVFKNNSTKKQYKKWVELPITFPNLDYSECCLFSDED
Kind of data set: native gel or EMSA. For orientation: In EMSA bound probe runs differently from free probe, usually more slowly.

The data set “SEC-MALS” concerns the molecule itself. Kind of data set: SEC-MALS.
In a further data set the target is T2, MDA5ΔN (human, UniProt Q9BYX4 287-1025).
T2 sequence (looked up): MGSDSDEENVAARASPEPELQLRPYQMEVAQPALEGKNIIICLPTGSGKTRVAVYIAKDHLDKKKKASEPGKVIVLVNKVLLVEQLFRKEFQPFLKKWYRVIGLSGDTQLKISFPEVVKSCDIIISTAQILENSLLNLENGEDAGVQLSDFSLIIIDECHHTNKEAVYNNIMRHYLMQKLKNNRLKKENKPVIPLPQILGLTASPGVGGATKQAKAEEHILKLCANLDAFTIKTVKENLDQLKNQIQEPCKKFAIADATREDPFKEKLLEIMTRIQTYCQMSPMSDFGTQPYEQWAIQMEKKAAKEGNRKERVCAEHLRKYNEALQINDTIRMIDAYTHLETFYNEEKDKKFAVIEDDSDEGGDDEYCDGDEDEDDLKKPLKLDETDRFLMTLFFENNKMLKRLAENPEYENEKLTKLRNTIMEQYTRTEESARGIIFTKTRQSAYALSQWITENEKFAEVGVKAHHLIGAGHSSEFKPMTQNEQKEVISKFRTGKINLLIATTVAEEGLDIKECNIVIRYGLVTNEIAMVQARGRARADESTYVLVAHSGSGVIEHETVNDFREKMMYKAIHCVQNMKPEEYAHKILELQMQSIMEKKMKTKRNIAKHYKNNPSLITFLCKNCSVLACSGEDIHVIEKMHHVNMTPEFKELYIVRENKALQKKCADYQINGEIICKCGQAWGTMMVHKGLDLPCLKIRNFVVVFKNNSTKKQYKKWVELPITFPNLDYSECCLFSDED
Kind of data set: native gel or EMSA.

In another data set the target is T3, TRIM14^CC-PSpry (human, UniProt Q14142 59-442).
T3 sequence (looked up): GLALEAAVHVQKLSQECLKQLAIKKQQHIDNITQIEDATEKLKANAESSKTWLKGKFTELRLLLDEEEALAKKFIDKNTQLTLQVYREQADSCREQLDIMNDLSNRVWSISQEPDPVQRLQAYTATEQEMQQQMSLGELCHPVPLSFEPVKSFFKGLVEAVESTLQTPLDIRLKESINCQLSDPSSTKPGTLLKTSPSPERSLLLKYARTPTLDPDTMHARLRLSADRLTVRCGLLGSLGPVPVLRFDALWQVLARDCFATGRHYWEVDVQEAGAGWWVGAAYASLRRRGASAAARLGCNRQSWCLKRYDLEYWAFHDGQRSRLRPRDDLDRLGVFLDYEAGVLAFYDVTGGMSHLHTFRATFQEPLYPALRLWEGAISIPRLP
Kind of data set: pull-down.

This note sets out measurements from article PMC8183676 (Molecular cell, 2020).

B1: TRIM65 CC-PSpry, fluorescein-labelled (domain or fragment, human, UniProt Q6PJ69 125-517, looked up)
chain: HERALLDAERLKREAQLRASLEVTQQQATQAEGQLLELRKQSSQIQNSACILASWVSGKFSSLLQALEIQHTTALRSIEVAKTQALAQARDEEQRLRVHLEAVARHGCRIRELLEQVDEQTFLQESQLLQPPGPLGPLTPLQWDEDQQLGDLKQLLSRLCGLLLEEGSHPGAPAKPVDLAPVEAPGPLAPVPSTVCPLRRKLWQNYRNLTFDPVSANRHFYLSRQDQQVKHCRQSRGPGGPGSFELWQVQCAQSFQAGHHYWEVRASDHSVTLGVSYPQLPRCRLGPHTDNIGRGPCSWGLCVQEDSLQAWHNGEAQRLPGVSGRLLGMDLDLASGCLTFYSLEPQTQPLYTFHALFNQPLTPVFWLLEGRTLTLCHQPGAVFPLGPQEEVLS
modifications: fluorescein-conjugated peptide (LPETGG) joined to the N-terminus with sortase A
Take B1: the binding result with GST-MDA5ΔN is recorded as “binds”.

B2: TRIM65 CC-PSpry (domain or fragment, human, UniProt Q6PJ69 125-517, looked up)
chain: HERALLDAERLKREAQLRASLEVTQQQATQAEGQLLELRKQSSQIQNSACILASWVSGKFSSLLQALEIQHTTALRSIEVAKTQALAQARDEEQRLRVHLEAVARHGCRIRELLEQVDEQTFLQESQLLQPPGPLGPLTPLQWDEDQQLGDLKQLLSRLCGLLLEEGSHPGAPAKPVDLAPVEAPGPLAPVPSTVCPLRRKLWQNYRNLTFDPVSANRHFYLSRQDQQVKHCRQSRGPGGPGSFELWQVQCAQSFQAGHHYWEVRASDHSVTLGVSYPQLPRCRLGPHTDNIGRGPCSWGLCVQEDSLQAWHNGEAQRLPGVSGRLLGMDLDLASGCLTFYSLEPQTQPLYTFHALFNQPLTPVFWLLEGRTLTLCHQPGAVFPLGPQEEVLS
Consider B2, for which the “stoichiometry N” value in “SEC-MALS” was 2. Moreover, the Kd in the data set with MDA5ΔN was 171 nM.

B3: GST-LGP2^Hel2i2 (domain or fragment, human, UniProt Q96C10 211-487, looked up)
chain: SQQPCKQYNLCHRRSQDPFGDLLKKLMDQIHDHLEMPELSRKFGTQMYEQQVVKLSEAAALAGLQEQRVYALHLRRYNDALLIHDTVRAVDALAALQDFYHREHVTKTQILCAERRLLALFDDRKNELAHLATHGPENPKLEMLEKILQRQFSSSNSPRGIIFTRTRQSAHSLLLWLQQQQGLQTVDIRAQLLIGAGNSSQSTHMTQRDQQEVIQKFQDGTLNLLVATSVAEEGLDIPHCNVVVRYGLLTNEISMVQARGRARADQSVYAFVATEGS
B3: in the data set with TRIM14^CC-PSpry, the binding result is on record as “binds”.

As a reminder, the stoichiometry N is the number of molecules, sites or subunits per partner or assembly. The term Kd denotes the equilibrium constant for the complex coming apart. A lower Kd goes with tighter binding.
